From patent US20170051041A1 come the findings set out here.

Bounds are passed on as bounds.

What all share (experiment): SPR single-cycle kinetics; reference WT-FVIII-C2
Assay [1] has as its target FVIII-C2 mutein R2220A (human) (UniProt P00451).
For assay [2], the target named is FVIII-C2 mutein F2200A (human) (UniProt P00451).
Assay [3] concerns the target FVIII-C2 mutein S2254A (human) (UniProt P00451).
Assay [4] concerns the target FVIII-C2 mutein E2228A (human) (UniProt P00451).
Assay [5] deals with FVIII-C2 mutein Q2316A (human) (UniProt P00451).
The target of assay [6] is FVIII-C2 mutein L2252A (human) (UniProt P00451).
For assay [7], the target named is FVIII-C2 mutein H2315A (human) (UniProt P00451).

Fab fragment of human anti-FVIII mAb BO2C11, sequence (VH): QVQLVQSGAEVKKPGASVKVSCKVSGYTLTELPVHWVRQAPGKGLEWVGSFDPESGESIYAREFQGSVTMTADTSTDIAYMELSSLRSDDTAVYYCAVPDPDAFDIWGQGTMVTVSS
Fab fragment of human anti-FVIII mAb BO2C11, sequence (VL): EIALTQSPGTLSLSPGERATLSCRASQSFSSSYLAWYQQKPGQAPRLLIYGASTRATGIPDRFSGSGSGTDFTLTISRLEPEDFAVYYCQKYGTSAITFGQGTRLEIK
UniProt P00451, sequence (P00451 2189-2351 F2219A): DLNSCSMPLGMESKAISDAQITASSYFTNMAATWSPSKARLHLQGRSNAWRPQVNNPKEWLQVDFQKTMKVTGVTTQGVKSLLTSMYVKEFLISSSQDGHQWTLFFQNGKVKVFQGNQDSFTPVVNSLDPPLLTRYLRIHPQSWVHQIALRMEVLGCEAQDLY

Regarding “Murine anti-FVIII C2 domain mAb ESH8 (antibody)”, in assay [1], the kd(mutein)/kd(WT) came out at 4.5 fold.
As for “Murine anti-FVIII C2 domain mAb I109 (antibody)”, in assay [2], the kd(mutein)/kd(WT) is > 2 fold.
In turn, “Murine anti-FVIII C2 domain mAb ESH4 (antibody)” yielded a kd(mutein)/kd(WT) in assay [1] of 2.7 fold.
“Murine anti-FVIII C2 domain mAb 2-117 (GMA-8003) (antibody)”: the kd(mutein)/kd(WT) in assay [1] came out at 3 fold.
With “Fab fragment of human anti-FVIII mAb BO2C11”, the kd(mutein)/kd(WT) in assay [2] is > 2 fold.
For “Murine anti-FVIII C2 domain mAb 1B5 (GMA-8008) (antibody)”, the kd(mutein)/kd(WT) in assay [3], in assay [4], in assay [5], in assay [6], in assay [2] and in assay [7] was > 2 fold each time.
For “Murine anti-FVIII C2 domain mAb 3D12 (antibody)”, the kd(mutein)/kd(WT) in assay [2] was > 2 fold.
